Assay results taken from publication PMC7018998.

What was measured:
[1] = target: ErbB2 (UniProt P04626); assay: two-colour single molecule co-localisation and tracking (TOCCSL, TIR microscopy); live CHO-ErbB2-ErbB3 cells; AF488-ErbB3-Fab and AF647-ErbB3-Fab for homodimers, AF488-ErbB2-Fab and AF647-ErbB3-Fab for heterodimers; no HRG, no pertuzumab; room temperature; settings: other: two-colour single molecule co-localisation and tracking (TOCCSL, TIR microscopy)
[2] = target: ErbB2 (UniProt P04626); assay: two-colour single molecule co-localisation and tracking (TOCCSL, TIR microscopy); live CHO-ErbB2-ErbB3 cells; AF488-ErbB3-Fab and AF647-ErbB3-Fab for homodimers, AF488-ErbB2-Fab and AF647-ErbB3-Fab for heterodimers; with 200 ng/mL (25 nM) HRG, no pertuzumab; room temperature; settings: other: two-colour single molecule co-localisation and tracking (TOCCSL, TIR microscopy)

Chain of ErbB3 (chain): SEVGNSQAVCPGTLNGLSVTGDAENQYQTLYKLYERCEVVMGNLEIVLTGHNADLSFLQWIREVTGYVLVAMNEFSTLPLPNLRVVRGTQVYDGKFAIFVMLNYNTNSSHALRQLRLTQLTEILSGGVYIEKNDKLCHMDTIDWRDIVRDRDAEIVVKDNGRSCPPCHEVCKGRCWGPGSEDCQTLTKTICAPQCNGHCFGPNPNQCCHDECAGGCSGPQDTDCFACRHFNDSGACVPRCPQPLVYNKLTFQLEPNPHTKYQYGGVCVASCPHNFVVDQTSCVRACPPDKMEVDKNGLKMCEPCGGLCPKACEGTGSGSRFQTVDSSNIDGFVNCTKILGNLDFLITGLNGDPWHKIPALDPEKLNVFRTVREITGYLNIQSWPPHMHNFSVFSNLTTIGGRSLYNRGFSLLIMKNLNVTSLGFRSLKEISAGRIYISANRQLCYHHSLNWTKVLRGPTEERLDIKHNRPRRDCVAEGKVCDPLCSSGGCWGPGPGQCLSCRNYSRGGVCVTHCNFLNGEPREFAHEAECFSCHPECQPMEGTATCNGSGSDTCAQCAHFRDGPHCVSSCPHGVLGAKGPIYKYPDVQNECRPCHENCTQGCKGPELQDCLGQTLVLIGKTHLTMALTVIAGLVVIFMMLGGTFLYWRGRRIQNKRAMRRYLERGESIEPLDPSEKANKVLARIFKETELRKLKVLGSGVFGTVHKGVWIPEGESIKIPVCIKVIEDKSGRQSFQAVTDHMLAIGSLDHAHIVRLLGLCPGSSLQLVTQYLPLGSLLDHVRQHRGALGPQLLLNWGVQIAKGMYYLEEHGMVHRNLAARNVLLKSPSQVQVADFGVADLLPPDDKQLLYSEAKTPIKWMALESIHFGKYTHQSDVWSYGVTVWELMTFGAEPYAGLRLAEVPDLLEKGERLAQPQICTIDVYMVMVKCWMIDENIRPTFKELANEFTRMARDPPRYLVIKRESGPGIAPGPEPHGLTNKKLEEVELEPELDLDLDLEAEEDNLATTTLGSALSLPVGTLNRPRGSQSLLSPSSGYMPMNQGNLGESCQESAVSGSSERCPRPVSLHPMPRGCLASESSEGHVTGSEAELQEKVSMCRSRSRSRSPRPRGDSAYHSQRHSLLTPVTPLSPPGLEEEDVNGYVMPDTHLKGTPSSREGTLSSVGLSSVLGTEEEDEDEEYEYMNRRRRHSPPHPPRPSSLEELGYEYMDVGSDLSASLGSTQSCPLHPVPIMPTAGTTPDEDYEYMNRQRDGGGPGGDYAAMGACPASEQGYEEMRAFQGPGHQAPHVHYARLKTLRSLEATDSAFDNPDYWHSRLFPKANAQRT

ErbB3
percent of ErbB3 in ErbB3/ErbB2 heterodimers [1]: ∼70% of ErbB3 being associated to ErbB3/ErbB2 heterodimers | percent of ErbB3 in ErbB3/ErbB2 heterodimers [2]: a further increase of ErbB3/ErbB2 heterodimerization (∼90%
